The target of assay [1] is IL5 (human) (UniProt P05113). As to the kind of experiment: ELISA. (ELISA stands for enzyme-linked immunosorbent assay.)
Assay [2] has as its target IL5 (human) (UniProt P05113). As to the kind of experiment: flow cytometry blocking IL5/IL5R.
Assay [3] has as its target IL5 (human) (UniProt P05113). Kind of assay: flow cytometry blocking IL5/IL5R. The source holds these as a separate data set. On the technique in general: Flow cytometry measures light scatter and fluorescence of single cells or particles in a stream.
Assay [4] addresses IL5 (human) (UniProt P05113). As to the kind of experiment: cell-based or functional assay.
Assay [5] has as its target IL5 (human) (UniProt P05113). Kind of assay: Flow cytometry, blocking of IL5-biotin binding to HEK293F cells expressing IL5R.

Our source for the EC50, IC50 and IC50 of inhibition of the proliferation of TF-1 cells induced by IL5 (CCK8, OD450) values is US20230399395A1.

The term EC50 denotes the concentration giving half of the maximal effect. Read a low EC50 as higher potency in that assay. In general, IC50 refers to the concentration that inhibits the measured activity by half. Lower therefore signals higher potency.

For the substance Control Ab Nucala, the EC50 with IL5 (human) [1] was found to be 0.0563 µg/mL. Besides, the IC50 in the assay with IL5 (human) [2] was 2.96 µg/mL; in the assay with IL5 (human) [3], 2.36 µg/mL.

As to Nucala (antibody), the IC50 of inhibition of the proliferation of TF-1 cells induced by IL5 (CCK8, OD450) in the assay with IL5 (human) [4] came out at 0.178 nM. The IC50 in the assay with IL5 (human) [5] came out at 2.04 µg/mL.
